B2: TBP (159-339) (domain or fragment, human, UniProt P20226 159-339, looked up)
chain: SGIVPQLQNIVSTVNLGCKLDLKTIALRARNAEYNPKRFAAVIMRIREPRTTALIFSSGKMVCTGAKSEEQSRLAARKYARVVQKLGFPAKFLDFKIQNMVGSCDVKFPIRLEGLVLTHQQFSSYEPELFPGLIYRMIKPRIVLLIFVSGKVVLTGAKVRAEIYEAFENIYPILKGFRKTT
notes: source: E. coli Rosetta (DE3)pLysS, purified (HisTrap, heparin, 3C cleavage, SEC)

One data set has as its target TBP (core) (Homo sapiens, UniProt P20226 159-339). The data set can be described thus: smFRET; 10 nM TBP; complex lifetime 0.29 s; EMSA: 500 mM ammonium acetate, 50 mM HEPES pH 7.9, 10% glycerol, 1 mM TCEP, 21 °C 20 min, diluted twofold (100 mM ammonium acetate, 40% glycerol) before loading; SNAPc EMSA: 500 mM NaCl, 50 mM HEPES pH 7.9, 20% glycerol, 1 mM TCEP, 21 °C; smFRET lifetimes: T78 buffer, 1 mM DTT, room temperature. Particulars: protein: recombinant; tags: His-tag cleaved (3C); label: internal ATTO 532 donor and ATTO 647N acceptor; immobilized in TIRF assay; blunt.

The target in data set [1] is T1, TBP (core);Brf2 (62-419);Bdp1SANT (Homo sapiens;Homo sapiens;Homo sapiens, UniProt P20226;Q9HAW0;A6H8Y1 159-339;62-419;241-396, ||). Briefly: smFRET; complex lifetime 547 ± 87 s (heparin trap); EMSA: 500 mM ammonium acetate, 50 mM HEPES pH 7.9, 10% glycerol, 1 mM TCEP, 21 °C 20 min, diluted twofold (100 mM ammonium acetate, 40% glycerol) before loading; SNAPc EMSA: 500 mM NaCl, 50 mM HEPES pH 7.9, 20% glycerol, 1 mM TCEP, 21 °C; smFRET lifetimes: T78 buffer, 1 mM DTT, room temperature. As to conditions: protein: recombinant;recombinant;recombinant; tags: His-tag cleaved (3C);N-terminal His-tag cleaved (3C);N-terminal His, cleavable; cleaved for crystallization; copies: 1;1;1; label: internal ATTO 532 donor and ATTO 647N acceptor; immobilized in TIRF assay; blunt. Background: In EMSA bound probe runs differently from free probe, usually more slowly.
T1 sequence (Q9HAW0 62-419, one chain of several): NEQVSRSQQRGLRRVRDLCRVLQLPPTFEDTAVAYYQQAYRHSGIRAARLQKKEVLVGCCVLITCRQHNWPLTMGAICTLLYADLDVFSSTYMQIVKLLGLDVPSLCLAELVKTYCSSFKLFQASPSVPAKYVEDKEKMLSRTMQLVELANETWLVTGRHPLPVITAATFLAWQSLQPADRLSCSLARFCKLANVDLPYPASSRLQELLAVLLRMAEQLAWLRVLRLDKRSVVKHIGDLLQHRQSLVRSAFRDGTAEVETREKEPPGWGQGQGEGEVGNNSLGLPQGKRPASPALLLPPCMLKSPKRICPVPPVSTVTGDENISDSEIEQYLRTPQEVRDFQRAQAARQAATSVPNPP

The target of data set [2] is T2, TBP (core);Brf2 (62-419) (Homo sapiens;Homo sapiens, UniProt P20226;Q9HAW0 159-339;62-419, |). Briefly: smFRET; complex lifetime 381 ± 33 s (heparin trap); EMSA: 500 mM ammonium acetate, 50 mM HEPES pH 7.9, 10% glycerol, 1 mM TCEP, 21 °C 20 min, diluted twofold (100 mM ammonium acetate, 40% glycerol) before loading; SNAPc EMSA: 500 mM NaCl, 50 mM HEPES pH 7.9, 20% glycerol, 1 mM TCEP, 21 °C; smFRET lifetimes: T78 buffer, 1 mM DTT, room temperature. As to conditions: protein: recombinant;recombinant; tags: His-tag cleaved (3C);N-terminal His-tag cleaved (3C); copies: 1;1; label: internal ATTO 532 donor and ATTO 647N acceptor; immobilized in TIRF assay; blunt.
T2 sequence (Q9HAW0 62-419, one chain of several): as above

A further data set deals with T3, Brf2 (62-419) (human, UniProt Q9HAW0 62-419).
T3 construct: Brf2 (TFIIB-related factor II), human, residues 62-419; also called TFIIB-related factor II; source: E. coli Rosetta (DE3)pLysS, co-expressed with TBP, purified in isolation (HisTrap, heparin, 3C cleavage, SEC); not shown: His tag, N-terminal, cleaved
T3 sequence (Q9HAW0 62-419): as the sequence (Q9HAW0 62-419, one chain of several) above
Briefly: crystal structure; Brf2 (62-419), TBP (159-339) and Bdp1SANT with 25 bp of the human U6 promoter; complex at 60 uM, equimolar TBP and Brf2, 1.1 molar excess of Bdp1SANT, 1.2 excess of dsDNA; hanging drop, PEG 8000, KCl, MES pH 6.5, MgCl2; 2.7 Å. As to conditions: both partners purified.

The target in the data set “TBP (159-339)” is B2. Described as above. As to conditions: both partners purified.
Data set [3] has as its target T4, Brf2–TBP complex on U6 promoter DNA (Brf2–TBP–DNA complex) (human, UniProt Q9HAW0 62-419; P20226 159-339).
T4 construct: Brf2 (TFIIB-related factor II), human, residues 62-419; The complex stands on double-stranded U6 promoter DNA in every experiment (Cy5-labelled U6_2 38-mer in EMSA; 25 bp fragment with overhangs in the crystal); Bdp1 also contacts the DNA; also called TBP–Brf2; source: E. coli Rosetta (DE3)pLysS, each protein purified, assembled with double-stranded U6 promoter DNA; not shown: His tag, …
The description is as above. Particulars: both partners purified.

Data set [4] addresses T4, Brf2–TBP complex on U6 promoter DNA …. The data set can be described thus: native gel or EMSA; 1.5 pmol Cy5-labelled U6_2 dsDNA, 5 pmol TBP (159-339), 7 pmol Brf2 (62-419), 10 pmol Bdp1 construct in 20 ul; 500 mM ammonium acetate, 50 mM HEPES pH 7.9, 10% glycerol, 1 mM TCEP; 21 °C, 20 min; 4.5% polyacrylamide gel. Particulars: both partners purified.
Data set [5] concerns the target T1, TBP (core);Brf2 (62-419);Bdp1SANT. Briefly: X-ray crystallography; 2.7 A; EMSA: 500 mM ammonium acetate, 50 mM HEPES pH 7.9, 10% glycerol, 1 mM TCEP, 21 °C 20 min, diluted twofold (100 mM ammonium acetate, 40% glycerol) before loading; SNAPc EMSA: 500 mM NaCl, 50 mM HEPES pH 7.9, 20% glycerol, 1 mM TCEP, 21 °C; smFRET lifetimes: T78 buffer, 1 mM DTT, room temperature. Particulars: protein: recombinant;recombinant;recombinant; tags: His-tag cleaved (3C);N-terminal His-tag cleaved (3C);N-terminal His, cleavable; cleaved for crystallization; copies: 1;1;1; 25 bp; template strand S1 has 1 nt 5' and 1 nt 3' overhang.

The target of the next data set is SNAPcΔ;Bdp1-WT (Homo sapiens?;Homo sapiens, UniProt Q5SXM2;Q92966;Q16533;O75971;A6H8Y1 1-516;1-411;1-368;1-98;1-484, |). Briefly: EMSA; Bdp1 binding to SNAPc-DNA; EMSA: 500 mM ammonium acetate, 50 mM HEPES pH 7.9, 10% glycerol, 1 mM TCEP, 21 °C 20 min, diluted twofold (100 mM ammonium acetate, 40% glycerol) before loading; SNAPc EMSA: 500 mM NaCl, 50 mM HEPES pH 7.9, 20% glycerol, 1 mM TCEP, 21 °C; smFRET lifetimes: T78 buffer, 1 mM DTT, room temperature. As to conditions: protein: recombinant;recombinant; tags: N-terminal Strep on SNAPc190Δ; His cleaved from SNAPc50;C-terminal His (uncleavable); copies: 1;1;1;1;1; blunt.

For a further data set, the target named is SNAPcΔ;Bdp1SANT (Homo sapiens?;Homo sapiens, UniProt Q5SXM2;Q92966;Q16533;O75971;A6H8Y1 1-516;1-411;1-368;1-98;241-396, |). The data set can be described thus: EMSA; Bdp1SANT not recruited to SNAPc-DNA; not loss of SNAPc-DNA binding; EMSA: 500 mM ammonium acetate, 50 mM HEPES pH 7.9, 10% glycerol, 1 mM TCEP, 21 °C 20 min, diluted twofold (100 mM ammonium acetate, 40% glycerol) before loading; SNAPc EMSA: 500 mM NaCl, 50 mM HEPES pH 7.9, 20% glycerol, 1 mM TCEP, 21 °C; smFRET lifetimes: T78 buffer, 1 mM DTT, room temperature. As to conditions: protein: recombinant;recombinant; tags: N-terminal Strep on SNAPc190Δ; His cleaved from SNAPc50;N-terminal His, cleavable; cleaved for crystallization; copies: 1;1;1;1;1; blunt.
SNAPcΔ;Bdp1SANT, sequence (Q5SXM2 1-516, stated change not applied, chain 1 of 4): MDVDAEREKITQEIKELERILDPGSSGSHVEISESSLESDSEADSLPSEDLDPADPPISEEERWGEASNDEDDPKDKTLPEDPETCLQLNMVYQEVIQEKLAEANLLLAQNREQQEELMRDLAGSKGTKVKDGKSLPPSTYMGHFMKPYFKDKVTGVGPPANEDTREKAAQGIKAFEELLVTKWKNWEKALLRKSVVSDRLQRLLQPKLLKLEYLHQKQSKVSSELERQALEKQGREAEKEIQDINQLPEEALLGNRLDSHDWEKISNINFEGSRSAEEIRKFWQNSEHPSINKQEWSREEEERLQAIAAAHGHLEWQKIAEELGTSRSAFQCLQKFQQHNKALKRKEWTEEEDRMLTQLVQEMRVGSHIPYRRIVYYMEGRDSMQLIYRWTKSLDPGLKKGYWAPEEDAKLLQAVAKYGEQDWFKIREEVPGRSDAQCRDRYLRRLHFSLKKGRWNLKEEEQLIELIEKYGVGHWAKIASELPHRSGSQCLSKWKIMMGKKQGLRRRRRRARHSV
SNAPcΔ;Bdp1SANT, sequence (Q92966 whole entry, stated change not applied, chain 2 of 4): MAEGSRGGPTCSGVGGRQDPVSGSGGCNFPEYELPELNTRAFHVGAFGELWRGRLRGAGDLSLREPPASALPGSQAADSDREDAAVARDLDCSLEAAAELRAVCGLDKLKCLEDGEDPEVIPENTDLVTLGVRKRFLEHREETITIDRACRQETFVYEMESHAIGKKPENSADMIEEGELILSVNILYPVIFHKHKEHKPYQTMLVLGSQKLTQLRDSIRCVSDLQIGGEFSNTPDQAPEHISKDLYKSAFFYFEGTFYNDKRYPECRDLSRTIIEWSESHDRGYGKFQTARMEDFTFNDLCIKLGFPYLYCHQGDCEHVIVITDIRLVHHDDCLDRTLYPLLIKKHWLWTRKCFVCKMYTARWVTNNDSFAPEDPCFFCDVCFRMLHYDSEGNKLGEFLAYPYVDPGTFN
SNAPcΔ;Bdp1SANT, sequence (Q16533 whole entry, stated change not applied, chain 3 of 4): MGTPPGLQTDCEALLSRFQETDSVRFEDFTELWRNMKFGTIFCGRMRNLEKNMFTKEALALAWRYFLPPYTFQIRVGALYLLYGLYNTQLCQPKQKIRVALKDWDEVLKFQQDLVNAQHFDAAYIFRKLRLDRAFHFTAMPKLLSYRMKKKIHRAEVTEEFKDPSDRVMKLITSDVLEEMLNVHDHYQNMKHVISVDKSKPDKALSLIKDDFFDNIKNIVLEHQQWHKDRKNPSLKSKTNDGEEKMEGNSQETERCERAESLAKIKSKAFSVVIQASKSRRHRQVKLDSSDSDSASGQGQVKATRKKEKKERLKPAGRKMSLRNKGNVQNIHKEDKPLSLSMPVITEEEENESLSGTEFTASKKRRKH
SNAPcΔ;Bdp1SANT, sequence (O75971 whole entry, stated change not applied, chain 4 of 4): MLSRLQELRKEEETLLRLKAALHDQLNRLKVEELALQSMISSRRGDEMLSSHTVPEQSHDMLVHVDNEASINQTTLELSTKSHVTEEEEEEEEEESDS

For data set [6], the target named is T2, TBP (core);Brf2 (62-419). The data set can be described thus: competition; 0-200x unlabelled same-sequence DNA; less stable than with Bdp1SANT; EMSA: 500 mM ammonium acetate, 50 mM HEPES pH 7.9, 10% glycerol, 1 mM TCEP, 21 °C 20 min, diluted twofold (100 mM ammonium acetate, 40% glycerol) before loading; SNAPc EMSA: 500 mM NaCl, 50 mM HEPES pH 7.9, 20% glycerol, 1 mM TCEP, 21 °C; smFRET lifetimes: T78 buffer, 1 mM DTT, room temperature. Particulars: protein: recombinant;recombinant; tags: His-tag cleaved (3C);N-terminal His-tag cleaved (3C); copies: 1;1; label: 5' Cy5 on strand 1; blunt.

Data set [7] addresses T1, TBP (core);Brf2 (62-419);Bdp1SANT. The data set can be described thus: EMSA; similar affinity to longer Bdp1 constructs; EMSA: 500 mM ammonium acetate, 50 mM HEPES pH 7.9, 10% glycerol, 1 mM TCEP, 21 °C 20 min, diluted twofold (100 mM ammonium acetate, 40% glycerol) before loading; SNAPc EMSA: 500 mM NaCl, 50 mM HEPES pH 7.9, 20% glycerol, 1 mM TCEP, 21 °C; smFRET lifetimes: T78 buffer, 1 mM DTT, room temperature. As to conditions: protein: recombinant;recombinant;recombinant; tags: His-tag cleaved (3C);N-terminal His-tag cleaved (3C);N-terminal His, cleavable; cleaved for crystallization; copies: 1;1;1; label: 5' Cy5 on strand 1; blunt.

T4 sequence (Q9HAW0 62-419, one chain of several): as the sequence (Q9HAW0 62-419, one chain of several) above

B1: U6 snRNA promoter smFRET DNA (dsDNA)
DNA 1: CGGACCAAGATGATTTGATTGAAGGGCTTAAAATAGGTGTGAGAGTAACCCTTGA
DNA 2: TCAAGGGTTACTCTCACACCTATTTTAAGCCCTTCAATCAAATCATCTTGGTCCG
For B1, the binding result (in the data set with TBP (core); in data set [1]; with TBP (core);Brf2 (62-419) [2]) was “binds” throughout.

On to B2, for which the binding result with Brf2 (62-419) is “binds”.

B3: Bdp1SANT, human Bdp1 extended SANT domain (residues 241-396), affinity tag removed for crystallization (domain or fragment, UniProt A6H8Y1 241-396, looked up)
chain: GPLLVPRVKVAEDGSIILDEESLTVEVLRTKGPCVVEENDPIFERGSTTTYSSFRKNYYSKPWSNKETDMFFLAISMVGTDFSMIGQLFPHRARIEIKNKFKREEKTNGWRIDKAFQEKRPFDFDFFAHLLQKVLAEEEKRKQKSVKNHSLKEKKS
notes: Bdp1, human, extended SANT domain, residues 241-396; residues 286-382 are built in the electron density; Cloned into pOPINF (cleavable N-terminal His-tag); tag removed with 3C protease for crystallization; source: E. coli BL21-CodonPlus (DE3)-RIL, purified (Ni-NTA, 3C cleavage, heparin, SEC); not shown: His tag, N-terminal, cleaved
Turning to B3, the binding result (with TBP (159-339); in [3]; with Brf2 (62-419)) was “binds” throughout.

B4: Bdp1SANT, human Bdp1 extended SANT domain (residues 241-396), His-tagged (domain or fragment, UniProt A6H8Y1 241-396, looked up)
chain: GPLLVPRVKVAEDGSIILDEESLTVEVLRTKGPCVVEENDPIFERGSTTTYSSFRKNYYSKPWSNKETDMFFLAISMVGTDFSMIGQLFPHRARIEIKNKFKREEKTNGWRIDKAFQEKRPFDFDFFAHLLQKVLAEEEKRKQKSVKNHSLKEKKS
notes: Bdp1, human, extended SANT domain, residues 241-396; The tag is kept in the pull-down (held on His SpinTrap); it tells of cleavage only for crystallization; source: E. coli BL21-CodonPlus (DE3)-RIL, purified (Ni-NTA, heparin, SEC); not shown: His tag, N-terminal, kept
With B4, the binding result in data set [4] is reported as “binds”.

B5: U6 promoter crystallization DNA (dsDNA)
DNA 1: TTGAAGGGCTTAAAATAGGTGTGAC
DNA 2: GGTCACACCTATTTTAAGCCCTTCAAC
B5: in data set [5], the binding result is “binds”.

B6: U6_2 PSE probe (dsDNA)
DNA 1: CCATAAGTTATCCTAACCAAAAGATGATTTGA
DNA 2: TCAAATCATCTTTTGGTTAGGATAACTTATGG
As to B6, the binding result with SNAPcΔ;Bdp1-WT was “binds”; with SNAPcΔ;Bdp1SANT, “no binding”.

B7: U6_2 TATA EMSA probe (dsDNA)
DNA 1: ATTTGATTGAAGGGCTTAAAATAGGTGTGACAGTAACC
DNA 2: GGTTACTGTCACACCTATTTTAAGCCCTTCAATCAAAT
With B7, the binding result (with TBP (core);Brf2 (62-419) [6]; in data set [7]) was “binds” in each case.

The values above are taken from publication PMC5526994 (Nature Communications, 2017).
